# Molecular target: soluble MERTK ectodomain (MERTK^ED-His)
# Assay: SPR; Biacore T200, room temperature; […]; HBS-EP (10 mM HEPES pH 7.4, 150 mM NaCl, 0.05% Tween 20)
substance,measurement,value
CSFV E2 ectodomain (E2^ED-His) (domain or fragment),Kd,1630 nM
